Data published in the DeepSol protein solubility set.

Assay: soluble on expression in E. coli; label from the status in PepcDB or PDB records

Row | Sequence | soluble on expression in E. coli
1 | MKAKTDFFHMKQAGEPIVMVTAYDFPSAKLAEQAGVDMILVGDSLGMVVLGYDSTIPVTVDDMIHHTKAVRRGAPNTFIVTDMPFMSYHASKEEALQNARRIMQESGANAVKVEGADEVVDMIAALTKAGVPVVAHLGLTPQSVGVLGGYKVQGKDAESAKKLLDDAKQCEQAGAIALVLECVPKQLGAAMARELTIPVIGIGAGAEVDGQVLVYHDLLGYGVTRVPKFVKQYASIQETIVEALANYVADVKLRQFPEPAHTFTMKEEEWVALYGGKQG | not soluble
2 | GPGSMVIKKDVPFKYTLHQGLCERDPVLSTPLIITAGVDGNELQYRLDMQVPSHSAIEGMEVTNVEFLFTSSKCNAGKSNQHLSKCSMLVYLYMQLLDGVGRPTSPPFPISCCNTHTGKGIFSCVKLPLQVNQQCRFYLVRRSCTDSASQSAMELKGVRFTSKLYLLYRSPLNSAKVRSQMDVLTGGDLKFTADTEVMTSTGAKRSREELERFGSENSDRKGKKAKRERETATTMDRASDDEPPNLIYAFVSGGDNES | soluble
3 | MEEDKNTLDLHTEAREEDRVAKAVALFKEGYNCSQSVVTAFADLYGFTREQALHMSASFGGGIGRMRETCGAACGMFLLAGLEKCAIEGKDRESKAANYALVQELAEEFKKRNGALRCADLLGLSGKEPVVSTPEARTERYYAKRPCARMVEEAARIWSEHLEKQKK | not soluble
4 | MSLTHLFYLTRGAPLSLKENYYPWLKAGSFFPDALYSCAPSNKDWSDFAEFTHWPNFLMIAVSYWQQKYGQNDRLRGTHGSLALKSFLIGVFTHQIVDVSWHSLVTDYRMHGLLRVLSETEFDGDIETAHTFLDVMGEFLTLNNVIRDSNNNENWDFLTRSDWKLPREEDLMEIIRNAGLSKEKLSYAELEFCVKRGMAAAISEGYLFRSQRNQLLTNIYSTSPRANDLILNHWLGGQSNLVAMLQRCVPFFETLFHDENTNEAQAEELRLCANLPPVSQKRINARPLVSSLKARKGNSHIVVSPMKSFSDFGTSLTMGKFREDNKDYLAVSAPLEDTVGAIYIVPWDILTVARKEDFSILQPITAMYGSKVGTYKASDVDYLLVSQPGTCTIDFYFKGVKILTIKDETTEEAHQLQFAVTGNFYDDKIPDLVVSSPSYGANETGIATFIPGSSIISYLTNSDKYQVVDISTFKGVINLDGYPMKIPFQHFGATIQISDTTDKQKLIYITCQSLGTVFVYSSNDLHDLSIPIYYITKNGVIPAKDSDHVEWHIIPSKEHGMFGAAIYSWNFEGMSFVAVSQPMFDTVFIYIEKSGQIEFFLKLVLKIKTKSDSIPDEFGSSLLFNDEEKKLYVSSPGSFDARGSIWKISMDELLKAGNDPKRKTLLINNLRHLMLINPDKSSKGVSNFGNSMILGPQNHLIVGIPQYGYGNFDHMQLTGRILVLEGHHHHHH | not soluble
5 | MGSDKIHHHHHHMSAPTPLAEASQIPTIPALSPLTAKQSKGNFFSSNPISSFVVDTYKQLHSHRQSLELVNPGTVENLNKEVSRDVFLSQYFFTGLRADLNKAFSMNPAFQTSHTFSIGSQALPKYAFSALFANDNLFAQGNIDNDLSVSGRLNYGWDKKNISKVNLQISDGQPTMCQLEQDYQASDFSVNVKTLNPSFSEKGEFTGVAVASFLQSVTPQLALGLETLYSRTDGSAPGDAGVSYLTRYVSKKQDWIFSGQLQANGALIASLWRKVAQNVEAGIETTLQAGMVPITDPLMGTPIGIQPTVEGSTTIGAKYEYRQSVYRGTLDSNGKVACFLERKVLPTLSVLFCGEIDHFKNDTKIGCGLQFETAGNQELLMLQQGLDADGNPLQALPQL | not soluble
6 | MGHHHHHHSHMTSELDIFVGNTTLIDEDVYRLWLDGYSVTDAVALRVRSGILEQTGATAAVLQSDTMDHYRTFHMLERLLHAPPKLLHQLIFQIPPSRQALLIERYYAFDEAFVREVLGKKLSKGTKKDLDDISTKTGITLKSCRRQFDNFKRVFKVVEEMRGSLVDNIQQHFLLSDRLARDYAAIVFFANNRFETGKKKLQYLSFGDFAFCAELMIQNWTLGAVGEAPTDP | not soluble
7 | MNEKYEAVIGLEIHVQMDTKTKMFCGCKVEFGAEPNTNVCPVCLGMPGALPIVNKRAVEYAIRASLALNCEVHEESVFARKHYFYPDLPKGYQISQYEKPLATNGWVELNLPNGEKKKVRIRRLHIEEDAGKNIHEGDKTLVDLNRAGTPLMEIVTEPDIRTPEEARLFLEKLRNIMRYAGVSKADMEKGQLRCDINVSIRPKGSKEFGTRVEIKNVNSFRFVQKALEYEIERQINVVEEGGEVVQETRTFDPQTGKTYPMRTKEEAEDYRYFPDPDLVPLKVKKEWIEEIKKNMPELPDQRFERLIKEYGLSEYEAGILVNHKEVGDFFEEAVRHFKEPKGIVNWLINDLLGLLRDKGISIEESPVKPEHLAELVKLIKEKVISTKIGKEVIKEMVETGKTPSQIVEEKGLKQITDENQIKELVKKIFEKHPKEVERLKQGEEKLIGFFVGQVMRETRGKANPQVVNKVIRELVKEV | soluble
8 | SSGGGTETPVACDAAQGGKKRDSLGTPGAAHLIIKDLGEIHSRLLDHRPVTQGEIRYFVKEFEEKRGLRELRVLKNLENTIQETNECLLPKCRETMECGLGETLQRLQAANDSICRLQQREQERKKVINDYLTASEKRRLVQWEEFVSGQPQRRAEVDEEHRRAVERLREQYAAMEKDLAKFSTF | soluble
9 | MGSDKIHHHHHHMSASLQTADRVRRWRIEGELTTRTPLHMGSGSFEARQELRRAPQTDDIAKAKAVLLDSDQRPCLTGSGLKGAMLAWANAYLPDPERDRLLFGCEPDGDGKGQGGRLEFQTAFLSQNKENTSPSSSPTPFWMSDRRTDVDTGVRINRASGTALDKHLFYKEVVAPGTAFRMVLDLDLPACCTDKGHALVNRVLALLEAFNLSDDDRVPPLTLGAMTGRGHGRFAWRLTNLSRVTDASARTWIDKGAPGTWAAALTPVPDKGPWQTTAKATLEVVQSPATLVCEVTLTFDHRFLISEPARVVTEDEARTRSGKTRTAGIMPKVDGKGNAVLPTASIKGVLRSRAERILATLTGDASAFEHAPGRGPAGQDNPAADMMTDRCLPTSRLFGAASWRAALDVEPFRPLSGHTTVAHQELVAIDRFTGGVSGSAKYDIDAFHRPQFKGRLRLNLRRSRLEDVGLLVLLLRDLAEGDLSFGYGGTKGYGGTQAMVTVQVRGTTAGTQALPLPEETGGAGIDTPVSWSSIQDSALASPLREAVAAFRRLYCKGEAV | not soluble
10 | MGSDKIHHHHHHMTNRCLYCYEPLVDGEMDYHAKCCRKLFGTPQAPILPYTSSEVRALADEVVRSQTTVTGVQPKLSLDFDQMSNSPKRFTIVGLWGRFILKPQTERYSHLPELEDVSMHLAEIAKIETVPHGLMRFSDGELCYITRRIDRTGQGEKLPMEDMCQLSERLTEYKYKGSHEQVAKLISKYSSVPKLDLVKYWEQVLFSWLIGNADMHLKNYSLYAPEGNEYQLTPAYDLLSTALVIPEDTEELALTLCGKKRKLTRQHFLEAMTASGLDEKVCDNIFARFQHILPEWEACIRQSFLPTEMQRQYIEFILLKFSQI | not soluble
11 | MSVPFLQQYRVGSYILKQKLAGNKRYPLVLMLEPLFQCNLACAGCGKIDYPEETLRRRLSVDECLHAVDECGAPVVSIAGGEPLIHKEMPQIVQGIIQRKKFVYLCTNALLLDTRMDDYQPSPYLTFSIHLDGNRERHDASVCREGVYDKVIPVIEQALQRGFRVTVNCTLFQSETAEEVAEFFDTATKLGVEGINVSPGFSYEHAPRQDVFLQRSVSKRLFRSIFEIGKKRKLPWKFNHSSLYLDFLAGNQSYKCTPWGNPTRNLFGWQRPCYLLVDEGYATSFRELMEETDWDRYGVGNNPKCANCMAHCGFEPTAINDTFAHPLKALRVSMRGPRVEGPMALDPLQTSSESQHNTDKRKPFPIPVTVEHKTVAPSSDHSSGPDN | not soluble
12 | MENTNEAAWILSIDKFRHNEGIINFSDQNRETAYHHTIKEINVALDNFSTKAGDNNMHLVKAKTSQGTELNWHGKFSLSPLKSSGDISFVSPLKIVSDYLQQRILFNITEGSLKVNSHYDFNFAGEQPQFIINNLMASISALEIRSRDDNKKIITSDELSVDLEQLSSLEHHHHHH | not soluble
13 | STGMRPRGAAFAAGPPGDLHLGTAIGFAGAIWRSRSPAMSTLLDIKSSVLRQVQVCPSFRRRTEQDPGSASADPQEPATGAWKPGDGVEFFAHMRLMLKKGEGRQGLPCLEVPLRSGSPAPPEPVDPSLGLRALAPEEVEMLYEEALYTVLYRAGTMGPDQVDDEEALLSYLQQVFGTSLEEHTEAIERVRKAKAPTYALKVSVMRAKNLLAKDPNGFSDPYCMLGILPASDATREPRAQKEQRFGFRKGSKRGGPLPAKCIQVTEVKSSTLNPVWKEHFLFEIEDVSTDQLHLDIWDHDDDVSLVEACRKLNEVIGLKGMGRYFKQIVKSARANGTAGPTEDHTDDFLGCLNIPVREVPVAGVDRWFKLEPRSSASRVQGHCHLVLKLITTQRDTAMSQRGRSGFLSHLLLLSHLLRLEHSAEEPNSSSWRGELSTPAATILCLHGAQSNLSPLQLAVLHWQVSSRHHQTCTLDYSYLLGLLEDMQAHWEEAPSLPQEQEESLADSLSAFSEFGLQLLRQLRDYFPATNSTAVHRLELLLKCLGKLQLFQPSFEICPFESELNMDIAAALKRGNREWYDRILNDKSPREQPGPQRLPGLVVLADAVYDDLQFCYSVYASLFHSILNVDVFTLTFRQLERLVAEEAWVLTEELSPKMTLEVASGLFELYLTLADLQRFWDSIPGRDSRSLALAGIHAPFLPAVKLWFQVLRDQAKWRLQGAVDMDTLEPVDASSRHSSSAATAGLCLSHIQELWVRLAWPDPAQAQGLGTQLGQDVCEATLFYTELLRKKVDTQPGAAGEAVSEALCVVLNNVELVRKAAGQALKGLAWPEGATGPEGVLPRPLLSCTQALDDDLQREAHTVTAHLTSKMVGDIRKYVQHISLSPDSIQNDEAVAPLMKYLDEKLALLNASLVKGNLSRVLEALWELLLQAILQALGANRDVSADFYSRFHFTLEALVSFFHAEGQGLPLESLRDGSYKRLKEELRLHKCSTRECIEQFYLDKLKQRTLEQNRFGRLSVRCHYEAAEQRLAVEVLHAADLLPLDANGLSDPFVIVELGPPHLFPLVRSQRTQVKTRTLHPVYDELFYFSVPAEACRRRAACVLFTVMDHDWLSTNDFAGEAALGLGGVTGVARPQVGGGARAGQPVTLHLCRPRAQVRSALRRLEGRTSKEAQEFVKKLKELEKCMEADP | soluble
14 | MATYNGQGFIHDQLDSIRNQTLRPDYVLMRDDGSTDDTVKVVEDYIKEHRLDGWSITSNDKNLGWRLNFRQLLIDVLAYEVDYVFFSDQDDTWYHHKNKMQVDIMEERQDINLLSADIDIKKLSEEATIPNNFKFNGEETISKYPLDFSYHNYRQGWTFCLRKSFVDQVMTFYSDNLILSHDNLFAGVSGVIGSGYNLNRSVGEHKRHAENASGNILNMSSSYERHLQELYFVLSYYIILVPFLEKSSSSQLREAKAYLDFNQQRYKNAQNKDFVAILKQMMTKKRFYDSFSNRIRDLVFLLKDIKRSLEHHHHHH | soluble
15 | MFPILETDRLILRQITDQDAEAIFACFSNDEVTRYYGLENMESIEQAISMIQTFAALYQEKRGIRWGIERRDTKELIGTIGFHALAQKHRRAEIGYEIIPEHWRNGFASEVISKVVSYGFSALGLSRIGAVVFTDNEASNRLLLKMGFQKEGVLRQYMYSKWDSI | not soluble
16 | MENTVDAKKDSTIAFTGGRILTMDSEQKYAEAVVIRGDRIAAVGGTYILKSFPDAEIRDLKNRYLLPAFIDSHNHLSSFGCFFPTWANLIGLTEKEAILKAIRRQVRKEPGTGWIVGFGWFDARMGGADLTKKDLDEVSSDRPVLLIQTTFHQSVVNTRALGLLGINQSTPDPRCGIIFRESDGTPTGVLVEYAQAPVFKLVMEADTETLADLIEARAKELLQFGITAIHDPGATPAAEAAYRQLHAEGRLPVSVLMMPHGETLLDNRLRDRLQGQVTGTGDERLRVGPIKLFADGATAETVAFSLKIGGQTINSGCYRDDFEEMLFAATEKGFRVCVHSFGNATTDAVLTAFENAALRAPAGFEMRPRLEHVTLINALQIRRLASMGGCACIQPQFLSRAQNTKQVMLEDGKWYAYGDLVKGGVIVASSSDDPGGFMDARDPIKGSVMGSTMSDGEGNVIFPDQVLPFEQWLWMYTAGGAYAGGQEKERGILKKGMVADLVILEGSLDSKNPTVVAETWAAGKQVYTKELEHHHHHH | not soluble
